{"source": "patent US7867500B2", "about": "“Cofactor that modulates steroid receptor activities” (The United States of America as represented by the …, priority 2004, dated 2011)", "key": {"coll3 promoter": {"test_system": "coll3 promoter", "assay": "ChIP assay on the endogenous coll3 promoter in U2OS.rGR cells", "assay_type": "cell-based", "details": "1 μM Dex, after 20 min of steroid treatment; HA/STAMP", "experimental": "FIG. 5C illustrates that STAMP and GR are co-localized on the promoter of an endogenous regulated gene as detected by chromatin immunoprecipitation (ChIP) assays. U2OS.rGR cells were treated with 1 μM Dex and then processed after 0 to 80 min as described in Example 1. The binding of GR and STAMP to the coll3 promoter was determined by the ability of PCR to amplify coll3 promoter sequences in the DNA that had been co-immunoprecipitated by anti-GR and anti-HA (to immobilize HA/STAMP) antibodies, respectively (upper panel). […] Similar results were obtained in two additional experiments.\nThe basic method of Ma et al. (Ma et al. (2003) Methods Enzymol. 364: […], was used with modifications. Two days before harvest, U2OS.rGR cells were seeded into 150 mm dishes at 3,000,000 cells per dish in phenol-red free medium with 10% charcoal/dextran-stripped fetal bovine serum. Each dish was transfected on the next day with 15 μg HA-STAMP and 60 μl Liopfectamine. On the third day, after brief ligand treatment, formaldehyde (37%) was added directly into the medium to a final concentration of 1% (37° C., 10 min), which was followed by glycine to a final concentration of 0.125 M (room temperature, 5 min with shaking). Cells were washed with (4° C.) cold PBS twice and harvested by scraping into 5 ml of cold (4° C.) PBS with a protease inhibitor cocktail (Roche). […]"}, "GRIP1": {"molecular_target": "T1, GRIP1 (Mus musculus, UniProt Q61026)", "T1 construct": "expressed in transfected cells; host or cells: Cos-7", "T1 sequence (Q61026 5-1462 limits assumed, one chain of several)": "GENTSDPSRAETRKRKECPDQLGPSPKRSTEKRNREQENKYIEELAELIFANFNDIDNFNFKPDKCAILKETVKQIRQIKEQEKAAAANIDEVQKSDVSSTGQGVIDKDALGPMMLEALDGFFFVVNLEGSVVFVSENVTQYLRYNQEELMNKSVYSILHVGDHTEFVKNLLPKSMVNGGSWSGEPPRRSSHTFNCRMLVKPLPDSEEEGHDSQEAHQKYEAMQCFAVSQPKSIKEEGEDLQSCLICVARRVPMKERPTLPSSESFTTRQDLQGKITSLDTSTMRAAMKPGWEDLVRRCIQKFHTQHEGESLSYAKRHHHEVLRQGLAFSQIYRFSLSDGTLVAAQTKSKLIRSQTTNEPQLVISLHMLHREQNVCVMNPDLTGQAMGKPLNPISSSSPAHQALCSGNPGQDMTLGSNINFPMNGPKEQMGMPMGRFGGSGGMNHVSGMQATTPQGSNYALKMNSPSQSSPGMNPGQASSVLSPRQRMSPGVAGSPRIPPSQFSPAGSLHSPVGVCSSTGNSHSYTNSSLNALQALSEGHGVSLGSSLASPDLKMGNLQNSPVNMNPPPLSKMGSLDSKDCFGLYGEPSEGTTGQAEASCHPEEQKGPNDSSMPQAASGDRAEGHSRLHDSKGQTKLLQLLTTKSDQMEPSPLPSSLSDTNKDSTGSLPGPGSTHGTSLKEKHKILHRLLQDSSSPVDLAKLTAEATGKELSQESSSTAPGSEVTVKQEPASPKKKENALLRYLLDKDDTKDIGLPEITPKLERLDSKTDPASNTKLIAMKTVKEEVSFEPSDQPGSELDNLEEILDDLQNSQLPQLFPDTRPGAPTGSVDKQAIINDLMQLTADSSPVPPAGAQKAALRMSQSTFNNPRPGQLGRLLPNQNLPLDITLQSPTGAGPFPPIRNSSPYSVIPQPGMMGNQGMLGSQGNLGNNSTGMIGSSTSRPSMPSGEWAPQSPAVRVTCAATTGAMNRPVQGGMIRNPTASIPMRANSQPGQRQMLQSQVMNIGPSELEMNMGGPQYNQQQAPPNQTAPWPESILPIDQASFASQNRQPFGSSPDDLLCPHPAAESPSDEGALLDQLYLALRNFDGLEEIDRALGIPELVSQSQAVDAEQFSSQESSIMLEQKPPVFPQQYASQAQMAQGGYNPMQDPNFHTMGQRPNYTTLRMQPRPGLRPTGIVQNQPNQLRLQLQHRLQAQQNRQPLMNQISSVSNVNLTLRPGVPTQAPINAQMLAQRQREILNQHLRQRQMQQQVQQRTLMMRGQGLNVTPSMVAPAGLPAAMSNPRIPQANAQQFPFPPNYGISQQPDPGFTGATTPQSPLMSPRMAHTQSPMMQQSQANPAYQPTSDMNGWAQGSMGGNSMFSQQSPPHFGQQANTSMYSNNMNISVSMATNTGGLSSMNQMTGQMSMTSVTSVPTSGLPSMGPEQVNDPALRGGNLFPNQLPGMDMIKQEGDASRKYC", "assay": "Whole cell co-immunoprecipitation in Cos-7 cells: HA-GRIP1", "assay_type": "binding", "details": "EtOH ± 1 μM Dex, 2 hr", "experimental": "FIG. 7C1-3 illustrate whole cell co-immunoprecipitation of STAMP, GR, and TIF2/GRIP1. Cos-7 cells that had been co-transfected with Flag/STAMP (or Flag itself), HA/GRIP1, and GR plasmids (10 μg of each/150 mm dish) for 48 hr were treated for 2 hr with EtOH±1 μM Dex before being lysed as described in Example 1. Lysate was either analyzed on SDS-PAGE gels or treated with anti-Flag antibody to immunoprecipitate Flag/STAMP. The pellets were separated on SDS-PAGE gels and Western blotted with anti-Flag (FIG. 7C1), anti-HA (FIG. 7C2), or anti-GR antibodies (FIG. 7C3). In each panel, lane 1=5.7% of input lysate, lane 2=IP pellet of Flag/STAMP, HA/GRIP1, and GR+EtOH, lane 3=IP pellet of Flag/STAMP, HA/GRIP1, and GR+Dex, and lane 4=control IP pellet of Flag, HA/GRIP1, and GR+EtOH. Similar results were obtained in a second experiment.\nImmunoprecipitations were conducted as generally described in Wang et al. (2004) Mol. Endocrinol. 18: 1476-95, with slight modifications. The day before transfection, Cos-7 cells were seeded into 150 mm dishes at 200,000 cells per dish containing 20 ml of media. On the next day, about 30 μg of DNA/dish was transfected with 60 μl of FuGene reagent. […]"}}, "data": [{"molecule": "STAMP: SRC-1 and TIF2 Associated Modulatory Protein, 1277 amino acid human polypeptide, expressed from transfected plasmid (protein) MARDLEETASSSEDEEVISQEDHPCIMWTGGCRRIPVLVFHADAILTKDNNIRVIGERYHLSYKIVRTDSRLVRSILTAHGFHEVHPSSTDYNLMWTGSHLKPFLLRTLSEAQKVNHFPRSYELTRKDRLYKNIIRMQHTHGFKVFHILPQTFLLPAEYAEFCNSYSKDRGPWIVKPVASSRGRGVYLINNPNQISLEENILVSRYINNPLLIDDFKFDVRLYVLVTSYDPLVIYLYEEGLARFATVRYDQGAKNIRNQFMHLTNYSVNKKSGDYVSCDDPEVEDYGNKWSMSAMLRYLKQEGRDTTALMAHVEDLIIKTIISAELAIATACKTFVPHRSSCFELYGFDVLIDSTLKPWLLEVNLSPSLACDAPLDLKIKASMISDMFTVVGFVCQDPAQRASTRPIYPTFESSRRNPFQKPQRCRPLSASDAEMKNLVGSAREKGPGKLGGSVLGLSMEEIKVLRRVKEENDRRGGFIRIFPTSETWEIYGSYLEHKTSMNYMLATRLFQDRMTADGAPELKIESLNSKAKLHAALYERKLLSLEVRKRRRRSSRLRAMRPKYPVITQPAEMNVKTETESEEEEEVALDNEDEEQEASQEESAGFLRENQAKYTPSLTALVENTPKENSMKVREWNNKGGHCCKLETQELEPKFNLMQILQDNGNLSKMQARIAFSAYLQHVQIRLMKDSGGQTFSASWAAKEDEQMELVVRFLKRASNNLQHSLRMVLPSRRLALLERRRILAHQLGDFIIVYNKETEQMAEKKSKKKVEEEEEDGVNMENFQEFIRQASEAELEEVLTFYTQKNKSASVFLGTHSKISKNNNNYSDSGAKGDHPETIMEEVKIKPPKQQQTTEIHSDKLSRFTTSAEKEAKLVYSNSSSGPTATLQKIPNTHLSSVTTSDLSPGPCHHSSLSQIPSAIPSMPHQPTILLNTVSASASPCLHPGAQNIPSPTGLPRCRSGSHTIGPFSSFQSAAHIYSQKLSRPSSAKAGSCYLNKHHSGIAKTQKEGEDASLYSKRYNQSMVTAELQRLAEKQAARQYSPSSHINLLTQQVTNLNLATGIINRSSASAPPTLRPIISPSGPTWSTQSDPQAPENHSSSPGSRSLQTGGFAWEGEVENNVYSQATGVVPQHKYHPTAGSYQLQFALQQLEQQKLQSRQLLDQSRARHQAIFGSQTLPNSNLWTMNNGAGCRISSATASGQKPTTLPQKVVPPPSSCASLVPKPPPNHEQVLRRATSQKASKGSSAEGQLNGLQSSLNPAASVPITSSTDPAHTKI", "values": [{"measurement": "localization on the coll3 promoter", "setting": "coll3 promoter", "value": "induced to localize on the coll3 promoter"}, {"measurement": "co-immunoprecipitation of GRIP1 with Flag-STAMP by anti-Flag antibody", "setting": "GRIP1", "value": "co-immunoprecipitated"}]}]}
